# Data taken from patent US20240261333A1, “NOVEL TARGETS FOR ENHANCING ANTI-TUMOR IMMUNITY” (THE BROAD INSTITUTE, INC., priority 2021, published 2024).
# T1: B3GNT2 (Homo sapiens, UniProt Q9NY97)
# T1 construct: The respective ORFs of candidate genes [CD274 (NM_014143), MCL1 (NM_021960), JUNB (NM_002229), and B3GNT2 (NM_006577)] were synthesized; expressed in transfected cells; host or cells: A375 melanoma cells (lentiviral ORF overexpression)
# T1 sequence (Q9NY97 1-397): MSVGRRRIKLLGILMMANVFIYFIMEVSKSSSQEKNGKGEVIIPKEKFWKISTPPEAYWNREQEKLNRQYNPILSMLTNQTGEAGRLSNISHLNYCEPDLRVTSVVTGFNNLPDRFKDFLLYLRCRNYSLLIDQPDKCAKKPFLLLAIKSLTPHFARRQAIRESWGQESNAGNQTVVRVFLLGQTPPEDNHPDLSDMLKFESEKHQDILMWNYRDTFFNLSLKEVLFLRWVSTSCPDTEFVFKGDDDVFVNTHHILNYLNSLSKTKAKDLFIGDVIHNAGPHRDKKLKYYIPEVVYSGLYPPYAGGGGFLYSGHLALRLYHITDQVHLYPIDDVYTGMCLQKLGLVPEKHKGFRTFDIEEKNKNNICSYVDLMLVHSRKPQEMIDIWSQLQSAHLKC
# B1: ZC3HAV1 (protein, UniProt Q7Z2W4 2-902, looked up)
# Zinc finger CCCH-type …: ADPEVCCFITKILCAHGGRMALDALLQEIALSEPQLCEVLQVAGPDRFVVLETGGEAGITRSVVATTRARVCRRKYCQRPCDNLHLCKLNLLGRCNYSQSERNLCKYSHEVLSEENFKVLKNHELSGLNKEELAVLLLQSDPFFMPEICKSYKGEGRQQICNQQPPCSRLHICDHFTRGNCRFPNCLRSHNLMDRKVLAIMREHGLNPDVVQNIQDICNSKHMQKNPPGPRAPSSHRRNMAYRARSKSRDRFFQGSQEFLASASASAERSCTPSPDQISHRASLEDAPVDDLTRKFTYLGSQDRARPPSGSSKATDLGGTSQAGTSQRFLENGSQEDLLHGNPGSTYLASNSTSAPNWKSLTSWTNDQGARRKTVFSPTLPAARSSLGSLQTPEAVTTRKGTGLLSSDYRIINGKSGTQDIQPGPLFNNNADGVATDITSTRSLNYKSTSSGHREISSPRIQDAGPASRDVQATGRIADDADPRVALVNDSLSDVTSTTSSRVDDHDSEEICLDHLCKGCPLNGSCSKVHFHLPYRWQMLIGKTWTDFEHMETIEKGYCNPGIHLCSVGSYTINFRVMSCDSFPIRRLSTPSSVTKPANSVFTTKWIWYWKNESGTWIQYGEEKDKRKNSNVDSSYLESLYQSCPRGVVPFQAGSRNYELSFQGMIQTNIASKTQKDVIRRPTFVPQWYVQQMKRGPDHQPAKTSSVSLTATFRPQEDFCFLSSKKYKLSEIHHLHPEYVRVSEHFKASMKNFKIEKIKKIENSELLDKFTWKKSQMKEEGKLLFYATSRAYVESICSNNFDSFLHETHENKYGKGIYFAKDAIYSHKNCPYDAKNVVMFVAQVLVGKFTEGNITYTSPPPQFDSCVDTRSNPSVFVIFQKDQVYPQYVIEYTEDKACVIS
# B2: TUBB6 (protein)
# chain: MREIVHIQAGQCGNQIGTKFWEVISDEHGIDPAGGYVGDSALQLERINVYYNESSSQKYVPRAALVDLEPGTMDSVRSGPFGQLFRPDNFIFGQTGAGNNWAKGHYTEGAELVDAVLDVVRKECEHCDCLQGFQLTHSLGGGTGSGMGTLLISKIREEFPDRIMNTFSVMPSPKVSDTVVEPYNATLSVHQLVENTDETYCIDNEALYDICFRTLKLTTPTYGDLNHLVSATMSGVTTSLRFPGQLNADLRKLAVNMVPFPRLHFFMPGFAPLTSRGSQQYRALTVPELTQQMFDARNMMAACDPRHGRYLTVATVFRGPMSMKEVDEQMLAIQSKNSSYFVEWIPNNVKVAVCDIPPRGLKMASTFIGNSTAIQELFKRISEQFSAMFRRKAFLHWFTGEGMDEMEFTEAESNMNDLVSEYQQYQDATANDGEEAFEDEEEEIDG
# B3: ILF3 (protein)
# chain: MRPMRIFVNDDRHVMAKHSSVYPTQEELEAVQNMVSHTERALKAVSDWIDEQEKGSSEQAESDNMDVPPEDDSKEGAGEQKTEHMTRTLRGVMRVGLVAKGLLLKGDLDLELVLLCKEKPTTALLDKVADNLAIQLAAVTEDKYEILQSVDDAAIVIKNTKEPPLSLTIHLTSPVVREEMEKVLAGETLSVNDPPDVLDRQKCLAALASLRHAKWFQARANGLKSCVIVIRVLRDLCTRVPTWGPLRGWPLELLCEKSIGTANRPMGAGEALRRVLECLASGIVMPDGSGIYDPCEKEATDAIGHLDRQQREDITQSAQHALRLAAFGQLHKVLGMDPLPSKMPKKPKNENPVDYTVQIPPSTTYAITPMKRPMEEDGEEKSPSKKKKKIQKKEEKAEPPQAMNALMRLNQLKPGLQYKLVSQTGPVHAPIFTMSVEVDGNSFEASGPSKKTAKLHVAVKVLQDMGLPTGAEGRDSSKGEDSAEETEAKPAVVAPAPVVEAVSTPSAAFPSDATAEQGPILTKHGKNPVMELNEKRRGLKYELISETGGSHDKRFVMEVEVDGQKFQGAGSNKKVAKAYAALAALEKLFPDTPLALDANKKKRAPVPVRGGPKFAAKPHNPGFGMGGPMHNEVPPPPNLRGRGRGGSIRGRGRGRGFGGANHGGYMNAGAGYGSYGYGGNSATAGYSQFYSNGGHSGNASGGGGGGGGGSSGYGSYYQGDNYNSPVPPKHAGKKQPHGGQQKPSYGSGYQSHQGQQQSYNQSPYSNYGPPQGKQKGYNHGQGSYSYSNSYNSPGGGGGSDYNYESKFNYSGSGGRSGGNSYGSGGASYNPGSHGGYGGGSGGGSSYQGKQGGYSQSNYNSPGSGQNYSGPPSSYQSSQGGYGRNADHSMNYQYR
# Biological target: T1, B3GNT2
# Assay: Co-IP of FLAG-tagged B3GNT2 followed by mass spectrometry
# Assay type: cell-based
# Parameters: C-term IgG / C-term flag: unit not given here
# Conditions: Co-IP with FLAG antibody, C-terminally FLAG-tagged B3GNT2; mass spectrometry count, unit not given
# In short: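 Co-purifying proteins were identified by fractionated nano-LC–MS/MS on an Orbitrap Elite, run data-dependent. Beforehand, lysates in 1% Triton X-100/HEPES buffer were incubated overnight at 4° C with anti-FLAG or […] and pulled down on Protein A/G magnetic beads for 4 h. Duplicate biological replicates.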
row,C-term flag,Molecule
1,4,B1
2,42,B2
3,5,B3

# Same assay, conditions: Co-IP with FLAG antibody, N-terminally FLAG-tagged B3GNT2; mass spectrometry count, unit not given
row,N-term FLAG,Molecule
1,3,B1
2,63,B2
3,2,B3

# Same assay, conditions: Co-IP with IgG control antibody, C-terminally FLAG-tagged B3GNT2; mass spectrometry count, unit not given
row,C-term IgG,Molecule
1,0,B1
2,0,B2
3,0,B3

# Same assay, conditions: Co-IP with IgG control antibody, N-terminally FLAG-tagged B3GNT2; mass spectrometry count, unit not given
row,N-term IgG,Molecule
1,0,B1
2,0,B2
3,0,B3
